Data on 3 molecules can be found in publication PMC11327109, “Unwinding of a eukaryotic origin of replication visualized by cryo-EM” (Nature Structural & Molecular Biology, 2024).

For series [1], the system named is T1, sCMGE10 (single Cdc45-MCM-GINS-Polε with Mcm10).
T1 construct: gene MCM2; His- or TwinStrepII-tagged GINS; MCM loaded as Mcm2-7/Cdt1; wild type; ATP/ADP in MCM ATPase tier; with Cell division control protein 45; DNA replication complex GINS protein PSF1; DNA replication complex GINS protein PSF2; DNA replication complex GINS protein PSF3; DNA replication complex GINS protein SLD5; DNA polymerase epsilon catalytic subunit A; DNA polymerase epsilon subunit B; DNA polymerase epsilon subunit C; DNA polymerase epsilon subunit D; Minichromosome maintenance protein 10
The experiment in a line: cryo-EM structure of complex ([…]-3.[…] Å). It is filed as binding, Saccharomyces cerevisiae. The note with it: assembled with 5 mM ATP, magnesium acetate, pH 7.6, bound to origin DNA; MCM ATPase sites.

The target of a further series is T2, Mcm10 wild-type (Saccharomyces cerevisiae, UniProt P32354 1-571).
T2 sequence: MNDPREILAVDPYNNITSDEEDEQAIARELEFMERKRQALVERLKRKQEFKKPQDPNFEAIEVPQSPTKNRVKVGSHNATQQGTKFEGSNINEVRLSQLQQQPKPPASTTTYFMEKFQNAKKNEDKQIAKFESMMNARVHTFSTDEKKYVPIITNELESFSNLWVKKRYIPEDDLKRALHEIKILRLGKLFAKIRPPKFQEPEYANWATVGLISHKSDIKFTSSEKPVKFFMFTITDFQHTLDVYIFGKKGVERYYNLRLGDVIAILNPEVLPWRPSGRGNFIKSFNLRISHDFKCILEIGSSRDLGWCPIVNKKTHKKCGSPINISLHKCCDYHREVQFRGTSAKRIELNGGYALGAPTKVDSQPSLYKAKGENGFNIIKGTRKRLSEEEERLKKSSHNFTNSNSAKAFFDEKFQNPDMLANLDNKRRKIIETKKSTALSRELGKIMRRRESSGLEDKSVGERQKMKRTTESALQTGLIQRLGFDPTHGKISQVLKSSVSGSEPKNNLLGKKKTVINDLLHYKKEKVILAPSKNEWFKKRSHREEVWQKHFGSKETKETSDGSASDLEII
The experiment in a line: MST; 10 mM Mg acetate; MST: 25 mM HEPES-KOH pH 7.6, 100 mM K-glutamate, 10 mM Mg acetate, 0.02% NP-40, 0.5 mM TCEP, 5 nM ssDNA, room temperature, 30 min; CMG assembly/EM: same buffer. The note with it: protein: recombinant; tags: N-terminal His, C-terminal Flag (pHis-Mcm10-Flag); label: FAM (after the 3' end).

In series [2] the target is T3, Mcm10 3A (OB-fold mutant) (Saccharomyces cerevisiae, UniProt P32354 1-571, F230A;Y245A;F247A).
T3 sequence: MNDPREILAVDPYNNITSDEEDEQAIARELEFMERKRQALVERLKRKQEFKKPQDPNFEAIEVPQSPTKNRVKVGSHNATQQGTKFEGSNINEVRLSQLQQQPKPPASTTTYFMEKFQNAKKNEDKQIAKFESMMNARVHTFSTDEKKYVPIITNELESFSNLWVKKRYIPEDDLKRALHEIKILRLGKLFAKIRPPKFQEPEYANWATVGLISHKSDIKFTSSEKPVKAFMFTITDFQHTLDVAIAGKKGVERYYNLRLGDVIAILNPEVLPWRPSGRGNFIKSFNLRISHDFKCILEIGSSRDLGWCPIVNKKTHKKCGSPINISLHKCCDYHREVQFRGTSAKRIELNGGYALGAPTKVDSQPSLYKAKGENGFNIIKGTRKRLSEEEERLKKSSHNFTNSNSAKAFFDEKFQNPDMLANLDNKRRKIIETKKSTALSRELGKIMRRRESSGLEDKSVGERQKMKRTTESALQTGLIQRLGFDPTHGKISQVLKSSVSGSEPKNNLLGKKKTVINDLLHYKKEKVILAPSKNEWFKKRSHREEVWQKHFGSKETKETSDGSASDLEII
The series is described as above. The note with it: protein: recombinant; label: FAM (after the 3' end).

Another series concerns the target T4, Mcm10 deltaCTD (Saccharomyces cerevisiae, UniProt P32354 1-357, del358-571).
T4 sequence: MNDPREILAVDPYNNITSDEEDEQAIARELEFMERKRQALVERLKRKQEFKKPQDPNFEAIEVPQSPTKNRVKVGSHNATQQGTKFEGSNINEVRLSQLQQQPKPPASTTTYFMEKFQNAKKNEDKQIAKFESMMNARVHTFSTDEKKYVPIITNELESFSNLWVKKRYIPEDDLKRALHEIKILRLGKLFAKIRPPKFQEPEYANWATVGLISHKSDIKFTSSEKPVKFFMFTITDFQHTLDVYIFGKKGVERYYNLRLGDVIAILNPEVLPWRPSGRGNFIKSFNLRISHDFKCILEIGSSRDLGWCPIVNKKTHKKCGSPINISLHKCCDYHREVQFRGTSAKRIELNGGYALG
Described as above. The note with it: protein: recombinant; tags: N-terminal 6xHis, C-terminal 3xFlag; label: FAM (after the 3' end).

With `Nc1ncnc2c1ncn2[C@@H]1O[C@H](COP(=O)(O)OP(=O)(O)OP(=O)(O)O)[C@@H](O)[C@H]1O` [ATP], the “cryo-EM structure of complex (3.7-3.9 Å)” value in series [1] is “Cryo-EM density for nucleotide ATP and ADP for consensus, ssDNA and nexus map”. Same read-out and setting: to `Nc1ncnc2c1ncn2[C@@H]1O[C@H](COP(=O)(O)OP(=O)(O)O)[C@@H](O)[C@H]1O` [ADP] belongs “Cryo-EM density for nucleotide ATP and ADP for consensus, ssDNA and nexus map”.

On to CCCCCCCCCCCC (ssDNA) [FAM-labelled dC12 ssDNA], for which the binding result is given as “binds” in the series with Mcm10 wild-type, “no binding” in series [2] and “binds” with Mcm10 deltaCTD.
